Our source for the Kd values is article PMC11953334, “Substrates bind to residues lining the ring of asymmetrically engaged bacterial proteasome activator Bpa” (Nature Communications, 2025).

This assay addresses bacterial proteasome activator Bpa, full-length, wild-type (M. tuberculosis H37Rv) (UniProt P9WKX3). The experiment in a line: MST.

For the substance “heat shock repressor HspR, wild-type (natural protein)”, the Kd (usually the constant that tells how readily two partners part at equilibrium) stood at 4.3 µM. In other words, the single-digit micromolar range.
